This note sets out measurements from patent US20220009959A1.

The target of assay [1] is CHO-K1 host cell proteins of mAb production clarified cell culture harvest (Chinese hamster (CHO-K1)). Description: static binding pH 6, 150 mM NaCl.
In assay [2] the target is monoclonal antibody product of the CHO-K1 production harvest. As to the kind of experiment: static binding pH 6, 150 mM NaCl.
Assay [3] deals with CHO-K1 host cell proteins of mAb production clarified cell culture harvest (Chinese hamster (CHO-K1)). As to the kind of experiment: static binding pH 7, 20 mM NaCl; HCP ELISA over Easy-Titer (reference: mAb m53). On the technique in general: In an ELISA, binding on a coated surface is turned into a signal by an enzyme label.
Assay [4] concerns the target high molecular weight HCPs (MW>150 kDa) of CHO-K1 IgG1 harvest (Chinese hamster (CHO-K1)). As to the kind of experiment: flow-through, SEC; 10-30 CV load.
The target is the same in assay [5]. Description: flow-through, SEC; 1 min RT, 60 CV cut-off load.
The target in assay [6] is low molecular weight HCPs (10 kDa<MW<150 kDa) of CHO-K1 IgG1 harvest (Chinese hamster (CHO-K1)). As to the kind of experiment: flow-through, SEC; 1 min RT, 60 CV cut-off load.

As to 4MP-Toyopearl resin, the figures for the Kp (partition coefficient) in assay [1] and in assay [2] were 7.3 and 0.75, respectively. In addition, the HCP targeted binding ratio (TBR; % HCP removed / % mAb removed) in assay [3] was determined as 4.87.
Regarding 6HP-Toyopearl resin, the Kp (partition coefficient) in assay [1] came out at 6.1; in assay [2], 0.96.
Turning to 6HP/4MP-Toyopearl resin, in assay [4], the fold reduction in HMW species lay within 2 to 4 fold. Moreover, the percent reduction in HMW % in assay [5] is 50%. The percent reduction in LMW % in assay [6] stood at 36%.
